Data: PMC12052686, “NADK tetramer defective mutants affect lung cancer response to chemotherapy via controlling NADK activity” (Genes & Diseases, 2025)

Experiments:
[1] = target: T1, human NADK (cNADK, full-length) (Homo sapiens, UniProt O95544, C349S); experiment: isothermal titration calorimetry; type: binding
T1 construct: full-length, modified pET28a, His tag cleaved by TEV, E. coli BL21, HisTrap / Resource Q / Superdex 200, tetramer
T1 sequence (O95544 1-446 C349S): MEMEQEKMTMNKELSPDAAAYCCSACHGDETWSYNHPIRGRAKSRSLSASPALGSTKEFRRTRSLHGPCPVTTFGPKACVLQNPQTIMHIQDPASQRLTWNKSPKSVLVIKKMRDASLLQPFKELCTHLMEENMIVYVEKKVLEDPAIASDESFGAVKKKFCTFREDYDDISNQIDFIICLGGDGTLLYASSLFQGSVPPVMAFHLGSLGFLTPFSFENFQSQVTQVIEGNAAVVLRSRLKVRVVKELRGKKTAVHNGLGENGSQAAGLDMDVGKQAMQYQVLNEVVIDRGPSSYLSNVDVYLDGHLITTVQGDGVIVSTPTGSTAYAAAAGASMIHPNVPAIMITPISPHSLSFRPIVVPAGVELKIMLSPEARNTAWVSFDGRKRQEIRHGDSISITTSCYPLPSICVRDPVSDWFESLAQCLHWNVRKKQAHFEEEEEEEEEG

[2] = target: the molecule itself; experiment: SEC; lysates of transfected HEK293T cells with endogenous NADK knocked out, Superdex 200 Increase 10/300 GL, 0.5 mL/min; fractions analysed by immunoblotting
[3] = target: the molecule itself; experiment: cryo-EM structure; single-particle cryo-EM of the purified, substrate-free NADK tetramer (10 mg/mL); 2.54 Å

NC(=O)c1ccc[n+]([C@@H]2O[C@H](COP(=O)([O-])OP(=O)(O)OC[C@H]3O[C@@H](n4cnc5c(N)ncnc54)[C@H](O)[C@@H]3O)[C@@H](O)[C@H]2O)c1 [NAD^+]
Kd [1]: 86.9 µM

B1: N-terminal truncated NADK (95-446) (domain or fragment, human, UniProt O95544 95-446, looked up)
chain: SQRLTWNKSPKSVLVIKKMRDASLLQPFKELCTHLMEENMIVYVEKKVLEDPAIASDESFGAVKKKFCTFREDYDDISNQIDFIICLGGDGTLLYASSLFQGSVPPVMAFHLGSLGFLTPFSFENFQSQVTQVIEGNAAVVLRSRLKVRVVKELRGKKTAVHNGLGENGSQAAGLDMDVGKQAMQYQVLNEVVIDRGPSSYLSNVDVYLDGHLITTVQGDGVIVSTPTGSTAYAAAAGASMIHPNVPAIMITPICPHSLSFRPIVVPAGVELKIMLSPEARNTAWVSFDGRKRQEIRHGDSISITTSCYPLPSICVRDPVSDWFESLAQCLHWNVRKKQAHFEEEEEEEEEG
notes: also called ΔN95; N-terminal truncation mutant; source: HEK293T with endogenous NADK knocked out, transfected, in lysate
stoichiometry N [2]: 4

B2: full-length human NADK (NAD+ kinase), purified tetramer (enzyme, UniProt O95544 1-446, looked up)
chain: MEMEQEKMTMNKELSPDAAAYCCSACHGDETWSYNHPIRGRAKSRSLSASPALGSTKEFRRTRSLHGPCPVTTFGPKACVLQNPQTIMHIQDPASQRLTWNKSPKSVLVIKKMRDASLLQPFKELCTHLMEENMIVYVEKKVLEDPAIASDESFGAVKKKFCTFREDYDDISNQIDFIICLGGDGTLLYASSLFQGSVPPVMAFHLGSLGFLTPFSFENFQSQVTQVIEGNAAVVLRSRLKVRVVKELRGKKTAVHNGLGENGSQAAGLDMDVGKQAMQYQVLNEVVIDRGPSSYLSNVDVYLDGHLITTVQGDGVIVSTPTGSTAYAAAAGASMIHPNVPAIMITPICPHSLSFRPIVVPAGVELKIMLSPEARNTAWVSFDGRKRQEIRHGDSISITTSCYPLPSICVRDPVSDWFESLAQCLHWNVRKKQAHFEEEEEEEEEG
notes: Cloned in a modified pET28a vector; the tetramer peak of the Superdex 200 column was collected for cryo-EM; In the map the protomers are visible only from residues 98, 95, 96 and 98; also called cNADK; cytoplasmic NADK; source: E. coli BL21, purified (HisTrap FF, TEV cleavage, Resource Q, Superdex 200 Increase)
stoichiometry N [3]: 4
